Assay results as given in patent US20200046796A1 (TECHNION RESEARCH AND DEVELOPMENT FOUNDATION, published 2020).

Assays:
[1] = molecular target: Yes associated protein 1 (YAP) (endogenous, from mouse dorsal skin) (mouse, UniProt P46938 1-488, limits assumed); experiment: co-immunoprecipitation of endogenous proteins from mouse skin, Western blot
[2] = molecular target: T1, Recombinant human α-Catenin protein
T1 chain: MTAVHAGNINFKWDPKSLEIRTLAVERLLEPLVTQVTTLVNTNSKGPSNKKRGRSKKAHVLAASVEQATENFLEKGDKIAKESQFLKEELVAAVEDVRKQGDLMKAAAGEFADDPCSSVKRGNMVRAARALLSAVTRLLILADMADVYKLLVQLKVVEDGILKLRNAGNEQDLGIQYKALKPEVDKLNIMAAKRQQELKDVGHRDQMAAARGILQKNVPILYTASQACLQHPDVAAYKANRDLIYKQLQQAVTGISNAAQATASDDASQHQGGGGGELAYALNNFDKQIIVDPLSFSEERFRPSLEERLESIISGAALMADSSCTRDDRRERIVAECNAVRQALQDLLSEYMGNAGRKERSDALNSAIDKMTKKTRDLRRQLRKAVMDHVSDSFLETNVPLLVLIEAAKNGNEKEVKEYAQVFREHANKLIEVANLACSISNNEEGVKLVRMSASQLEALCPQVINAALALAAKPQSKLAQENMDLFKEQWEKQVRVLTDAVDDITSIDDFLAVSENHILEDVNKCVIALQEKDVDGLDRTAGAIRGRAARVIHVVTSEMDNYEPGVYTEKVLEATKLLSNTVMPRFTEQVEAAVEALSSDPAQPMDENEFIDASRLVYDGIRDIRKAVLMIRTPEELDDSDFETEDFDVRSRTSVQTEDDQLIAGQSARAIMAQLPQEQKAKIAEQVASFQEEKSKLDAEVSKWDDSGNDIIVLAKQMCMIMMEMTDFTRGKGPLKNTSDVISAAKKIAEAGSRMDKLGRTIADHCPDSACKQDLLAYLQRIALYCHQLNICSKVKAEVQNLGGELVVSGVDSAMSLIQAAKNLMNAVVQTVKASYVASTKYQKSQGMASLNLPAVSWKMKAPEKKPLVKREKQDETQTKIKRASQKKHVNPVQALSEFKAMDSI

[3] = molecular target: recombinant mouse H3/H4 heterodimer, P62806
[4] = molecular target: T2, α-Catenin (endogenous, from HaCaT cells), P35221
T2 chain: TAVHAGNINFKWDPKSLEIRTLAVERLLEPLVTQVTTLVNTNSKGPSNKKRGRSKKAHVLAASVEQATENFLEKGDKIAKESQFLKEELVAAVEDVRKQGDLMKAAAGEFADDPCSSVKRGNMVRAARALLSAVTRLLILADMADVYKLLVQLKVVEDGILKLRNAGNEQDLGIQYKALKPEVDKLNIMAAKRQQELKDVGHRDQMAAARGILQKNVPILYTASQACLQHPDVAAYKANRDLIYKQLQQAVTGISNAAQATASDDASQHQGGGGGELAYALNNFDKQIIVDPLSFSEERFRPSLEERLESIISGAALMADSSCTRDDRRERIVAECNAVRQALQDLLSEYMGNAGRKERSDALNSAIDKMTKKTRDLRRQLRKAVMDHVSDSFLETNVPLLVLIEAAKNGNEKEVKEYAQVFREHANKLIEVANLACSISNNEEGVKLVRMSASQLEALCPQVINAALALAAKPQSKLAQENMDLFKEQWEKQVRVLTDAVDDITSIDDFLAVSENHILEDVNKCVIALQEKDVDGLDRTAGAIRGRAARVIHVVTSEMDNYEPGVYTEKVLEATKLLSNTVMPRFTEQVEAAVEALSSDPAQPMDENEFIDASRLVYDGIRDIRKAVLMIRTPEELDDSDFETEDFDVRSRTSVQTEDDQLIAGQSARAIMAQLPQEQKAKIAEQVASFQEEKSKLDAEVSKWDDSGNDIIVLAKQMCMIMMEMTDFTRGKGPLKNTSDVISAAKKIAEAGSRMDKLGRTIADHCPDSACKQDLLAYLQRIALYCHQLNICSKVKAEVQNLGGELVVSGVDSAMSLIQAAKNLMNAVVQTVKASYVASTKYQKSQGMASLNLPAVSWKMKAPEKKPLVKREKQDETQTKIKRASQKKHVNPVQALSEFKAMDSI

Sequence of Yes associated protein 1 (YAP) (endogenous, from mouse dorsal skin) (P46938 whole entry): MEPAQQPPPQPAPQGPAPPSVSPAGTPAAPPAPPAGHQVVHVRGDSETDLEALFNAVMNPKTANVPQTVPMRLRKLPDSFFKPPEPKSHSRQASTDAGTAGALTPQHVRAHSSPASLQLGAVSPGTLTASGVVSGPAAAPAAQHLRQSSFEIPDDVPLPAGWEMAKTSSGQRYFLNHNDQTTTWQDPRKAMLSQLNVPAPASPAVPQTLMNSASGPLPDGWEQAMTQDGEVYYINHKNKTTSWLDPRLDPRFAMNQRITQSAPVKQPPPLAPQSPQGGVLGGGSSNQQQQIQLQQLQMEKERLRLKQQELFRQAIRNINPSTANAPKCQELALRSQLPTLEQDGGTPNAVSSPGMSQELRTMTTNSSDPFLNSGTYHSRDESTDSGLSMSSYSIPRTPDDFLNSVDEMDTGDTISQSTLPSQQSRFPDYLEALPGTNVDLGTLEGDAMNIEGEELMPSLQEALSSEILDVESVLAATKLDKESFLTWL

B1: activated (cleaved) Caspase-3 (endogenous, from mouse dorsal skin) (enzyme, UniProt P70677 29-277, looked up)
chain: SGIYLDSSYKMDYPEMGICIIINNKNFHKSTGMSSRSGTDVDAANLRETFMGLKYQVRNKNDLTREDILELMDSVSKEDHSKRSSFVCVILSHGDEGVIYGTNGPVELKKLTSFFRGDYCRSLTGKPKLFIIQACRGTELDCGIETDSGTDEEMACQKIPVEADFLYAYSTAPGYYSWRNSKDGSWFIQSLCSMLKLYAHKLEFMHILTRVNRKVATEFESFSLDSTFHAKKQIPCIVSMLTKELYFYH
notes: also called CP3
binding result [1]: no binding

B2: recombinant human active caspase-3 (protein)
chain: SGISLDNSYKMDYPEMGLCIIINNKNFHKSTGMTSRSGTDVDAANLRETFRNLKYEVRNKNDLTREEIVELMRDVSKEDHSKRSSFVCVLLSHGEEGIIFGTNGPVDLKKITNFFRGDRCRSLTGKPKLFIIQACRGTELDCGIETDSGVDDDMACHKIPVEADFLYAYSTAPGYYSWRNSKDGSWFIQSLCAMLKQYADKLEFMHILTRVNRKVATEFESFSFDATFHAKKQIPCIVSMLTKELYFYH
in vitro cleavage assay, SDS-electrophoresis and Coomassie staining [2]: a dramatic decrease in the levels of full length α-Catenin (FIG. 4M) (Caspase-3 cleaved α-Catenin), giving rise to two novel bands at a molecular weight of ˜14 kDa and ˜17 kDa
in vitro cleavage assay, Coomassie staining [3]: Caspase-3 was not able to cleave either histones H2A/H2B or H3/H4
cleavage in HaCaT protein lysate, Western blot with antibodies for the C and N termini of α-Catenin [4]: addition of cleaved Caspase-3 results in a major decrease in the level of full-length α-Catenin
release of 14-3-3 from α-Catenin pull-down complexes after in vitro cleavage, Western blot [4]: Caspase-3-mediated cleavage facilitates the release of 14-3-3 from α-Catenin
